Publication PMC11389873 (Free radical biology & medicine, 2022)

Tests used:
[1] = molecular target: Purified recombinant human apo-IDO1 (His6-IDO1), Alexafluor 647-labelled (human, UniProt P14902 1-403, Alexafluor 647 on Cys groups); assay: fluorescence polarisation
[2] = molecular target: Purified recombinant human apo-TDO (GST-TDO), Alexafluor 647-labelled (human, UniProt P48775 1-406, Alexafluor 647 on Cys groups); assay: fluorescence polarisation
Chain of Purified recombinant human apo-TDO (GST-TDO), Alexafluor 647-labelled (P48775 whole entry): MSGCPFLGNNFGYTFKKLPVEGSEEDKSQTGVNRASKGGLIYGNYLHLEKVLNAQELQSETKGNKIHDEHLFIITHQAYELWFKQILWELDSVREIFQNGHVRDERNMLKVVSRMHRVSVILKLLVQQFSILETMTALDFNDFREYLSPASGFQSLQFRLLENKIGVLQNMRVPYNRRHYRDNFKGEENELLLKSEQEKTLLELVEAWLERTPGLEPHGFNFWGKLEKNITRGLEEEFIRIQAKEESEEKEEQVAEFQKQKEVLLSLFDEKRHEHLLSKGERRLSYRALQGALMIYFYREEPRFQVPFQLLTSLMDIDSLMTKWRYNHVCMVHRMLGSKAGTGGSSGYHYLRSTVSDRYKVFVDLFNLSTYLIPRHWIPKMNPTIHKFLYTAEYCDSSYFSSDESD

Chain of Purified recombinant human apo-IDO1 (His6-IDO1), Alexafluor 647-labelled (P14902 whole entry): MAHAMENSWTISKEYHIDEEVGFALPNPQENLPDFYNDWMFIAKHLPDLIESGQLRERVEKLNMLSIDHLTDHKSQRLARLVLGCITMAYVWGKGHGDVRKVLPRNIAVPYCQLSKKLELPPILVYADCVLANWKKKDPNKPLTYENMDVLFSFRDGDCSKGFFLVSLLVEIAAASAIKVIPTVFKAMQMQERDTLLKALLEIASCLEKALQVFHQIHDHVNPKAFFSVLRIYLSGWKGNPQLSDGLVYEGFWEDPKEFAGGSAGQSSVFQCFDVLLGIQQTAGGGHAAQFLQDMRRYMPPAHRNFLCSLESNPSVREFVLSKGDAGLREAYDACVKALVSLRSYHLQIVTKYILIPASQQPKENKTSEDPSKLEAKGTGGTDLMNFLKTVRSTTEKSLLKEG

B1: Purified GST-tagged human GAPDH (natural protein)
chain: not shown
Kd [1]: 1500 ± 1300 nM
Kd [2]: 1200 ± 400 nM
